The values that follow come from US20050064493A1 (LICENTIA, published 2005).

Series [1] has as its target T1, human VEGF165 (human, UniProt P15692 27-191).
T1 construct: mature; Expressed from cDNA in 293EBNA cells (pREP7) or Cos-1 cells (pSG5)
Nature of the series: coexpression in transfected cells, immunoprecipitation. An excerpt: (§1) The biochemical properties of human VEGF-B₁₆₇ were examined in transfected human embryonic kidney 293EBNA cells (Invitrogen, Inc.). cDNA inserts encoding human VEGF-B₁₆₇ and human VEGF₁₆₅ [see Keck et al., Science, Vol. 246, pages 1309-312 (1989)] were individually cloned into the pREP7 expression vector (Invitrogen, Inc.). Human embryo kidney 293EBNA cells (expressing Epstein-Barr virus nuclear antigen-1) were transfected by transient transfection with the respective expression plasmids using calcium phosphate precipitation, and the cells were incubated for 48 hours. As a control, cells also were transfected with an expression vector containing the VEGF-B₁₆₇ cDNA in reverse orientation. Monolayers of cells were incubated in methionine-free and cysteine-free medium for 30 minutes followed by labeling with 100 μCi/ml [³⁵S]methionine and [³⁵S]cysteine (Promix, Amersham Inc.) in the same medium for 2 hours. The labeling medium was replaced with normal medium without serum, and labelled proteins were chased for 6 hours. Heparin was included during the chase when indicated (100 μg/ml). Media were collected after the chase period, and cells were solubilized in 10 mM Tris pH 7.5, 50 mM NaCl, 0.5% sodium deoxycholate, 0.5% Nonidet P-40, 0.1% SDS and 0.1 U/ml aprotinin. […]

Series [2] deals with the molecule itself. Nature of the series: immunoprecipitation and SDS-PAGE, transfected 293EBNA cells.
Description: as §1, with “hours.” for “hours. The labeling medium was replaced with normal medium without serum, and labelled proteins were chased for 6 hours. Heparin was included during the chase when indicated (100 μg/ml). Media were collected after the chase period, and cells were solubilized in 10 mM Tris pH 7.5, 50 mM NaCl, 0.5% sodium deoxycholate, 0.5% Nonidet P-40, 0.1% SDS and 0.1 U/ml aprotinin.”
VEGF-B₁₆₇ was expressed in the cells transfected with the plasmids containing the VEGF-B₁₆₇ DNA. Aliquots of the culture supernatants from cells treated or untreated with heparin and detergent solubilized cell lysates were subjected to immunoprecipitation with the specific antipeptide antiserum to VEGF-B obtained as described in Example 8 and analyzed by SDS-PAGE under reducing conditions unless otherwise indicated. […]

Series [3] has as its target T1, human VEGF165. The series can be described thus: cotransfected Cos-1 cells; immunoprecipitation of media and lysates, reducing SDS-PAGE (FIG. 23B). The method, then: cDNA inserts encoding mouse VEGF-B₁₈₆ and human VEGF₁₆₅ were cloned into the pSG5 expression vector [Green et al., Nucleic Acid Res., 16:369 (1988)]. Cos-1 cells were maintained in minimal essential medium (MEM) containing 10% fetal calf serum, 2 mM glutamine and appropriate antibiotics. For transfections, the cells were replated into 90 mm Petri dishes. The cells were transfected with the expression vectors, separately or in combination, using calcium phosphate precipitation and incubated for 36-48 hours. Monolayers of cells were incubated in medium free of methionine and cysteine for 30 min and then incubated in the same medium containing 100 μCi/ml of [³⁵S]-methionine and [³⁵S]-cysteine for 2 hours (Promix Amersham Inc.).
For the pulse-chase experiments, the cells were labeled for 30 minutes, washed twice with normal medium and then incubated for up to 6 hours in MEM without fetal calf serum. Media were collected after the chase period and the cells were solubilized in 10 mM Tris buffer pH 7.5 containing 50 mM NaCl, 0.5% deoxycholate, 0.5% nonidet P-40 and 0.1% SDS. Aliquots of the media and the cell lysates were subjected to immunoprecipitation using the specific antiserum to mouse VEGF-B from Example 8a and a specific antiserum to human VEGF commercially available from R&D Systems. The precipitates were analyzed by SDS-PAGE. […]

Series [4] concerns the molecule itself. The series can be described thus: SDS-PAGE and immunoblot of Sf21 culture medium. The method, then: Sf21 cells [see Vaughn et al., In Vitro, 13:213-17 (1977)] were infected with the baculovirus stocks of Example 10 at a multiplicity of infection of 10 virus particles per cell. The infected Sf21 cells were grown in roller flasks and seeded at a density of 2×10⁶ cells per ml of serum free medium (Sf900II, Gibco-BRL) for 96 hours. Culture media and cells were then harvested. Aliquots of the cell lysates and of the media were analyzed by SDS-PAGE. Total protein patterns were visualized by staining the gels with Coomassie Brilliant Blue and the presence of expressed VEGF-B isoforms were visualized by immunoblotting using specific antipeptide antibodies to human and mouse VEGF-B as described above in Example 8. […] Both proteins were retained intracellularly in the infected cells and not released into the medium. In contrast, mouse VEGF-B-₁₈₆ was readily secreted into the medium in a dimeric form.

T1 sequence (P15692 other isoform, or with tags, fused parts or gaps): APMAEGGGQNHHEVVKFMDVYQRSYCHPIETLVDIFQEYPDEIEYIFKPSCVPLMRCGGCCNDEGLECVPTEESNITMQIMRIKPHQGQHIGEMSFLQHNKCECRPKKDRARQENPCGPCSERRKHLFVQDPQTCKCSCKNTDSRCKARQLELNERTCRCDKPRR

B1: human VEGF-B167 (ligand)
chain: PVSQPDAPGHQRKVVSWIDVYTRATCQPREVVVPLTVELMGTVAKQLVPSCVTVQRCGGCCPDDGLECVPTGQHQVRMQILMIRYPSSQLGEMSLEEHSQCECRPKKKDSAVKPDSPRPLCPRCTQHHQRPDPRTCRCRCRRRSFLRCQGRGLELNPDTCRCRKLRR
notes: Expressed from cDNA in 293EBNA cells (pREP7) or in Sf9/Sf21 insect cells; it forms disulfide-linked homodimers and heterodimers with VEGF165; also called hVEGF-B167; vascular endothelial growth factor B
As for B1, the binding result in series [1] and in series [2] was “binds” in each case.

B2: murine VEGF-B186 (ligand)
chain: PVAQFDGPSHQKKVVPWIDVYARATCQPREVVVPLSMELMGNVVKQLVPSCVTVQRCGGCCPDDGLECVPTGQHQVRMQILMIQYPSSQLGEMSLEEHSQCECRPKKKESAVKPDRVAIPHHRPQPRSVPGWDSTPGASSPADIIHPTPAPGSSARLAPSAVNALTPGPAAAAADAAASSIAKGGA
notes: Expressed in Cos-1 cells (pSG5) or Sf21 insect cells; The form secreted from Cos-1 cells carries an unidentified covalent modification (Mr 32,000 against 24,000 in cells); it forms disulfide-linked homodimers and heterodimers with VEGF165; also called mVEGF-B186; mouse VEGF-B186
B2: the binding result in series [3] and in series [4] was “binds” throughout.
